Where a chain is given by its changes, count along the chain named.
B1: v38740 (other)
heavy 1: EVQLVESGGGLVQPGGSLRLSCAASGVTFNYYGMSWIRQAPGKGLEWVASITSSGGRIYYPDSVKGRFTISRENTQKTLYLQMNSLRAEDTAVYYCTLDGRDGWVAYWGQGTLVTVSSASTKGPSVFPLAPSSKSTSGGTAALGCLVKDYFPEPVTVSWNSGALTSGVHTFPAVLQSSGLYSLSSVVTVPSSSLGTQTYICNVNHKPSNTKVDKKVEPKSCDKTHTCPPCPAPEAAGGPSVFLFPPKPKDTLMISRTPEVTCVVVSVSHEDPEVKFNWYVDGVEVHNAKTKPREEQYNSTYRVVSVLTVLHQDWLNGKEYKCKVSNKALPAPIEKTISKAKGQPREPQVYVYPPSRDELTKNQVSLTCLVKGFYPSDIAVEWESNGQPENNYKTTPPVLDSDGSFALVSKLTVDKSRWQQGNVFSCSVMHEALHNHYTQKSLSLSPGGGGGSGDRPWNPPTFSPALLVVTEGDNATFTCSFSNTSESFVLNWYRMSPSNQTDKLAAFPEDRSQPGQDARFRVTQLPNGRDFHMSVVRARRNDSGTYLCGAISLAPKAQIKESLRAELRVTE
light: NFMLTQPHSVSESPGKTVTISCKRNTGNIGSNYVNWYQQHEGSSPTTIIYRNDKRPDGVSDRFSGSIDRSSKSASLTISNLKTEDEADYFCQSYSSGFIFGGGTKLTVLGQPKAAPSVTLFPPSSEELQANKATLVCLISDFYPGAVTVAWKADSSPVKAGVETTTPSKQSNNKYAASSYLSLTPEQWKSHRSYSCQVTHEGSTVEKTVAPTECS
heavy 2: QVQLVESGGGLVQPGGSLRLSCSVSGIDLSSNPMIWVRQAPGKGLQYIGIIDTDGSTYYADWAKGRFTISKDSTTVYLQINSPRAEDTAVYYCARRLHGSSNGYYDDLWGQGTLVTVSSGGGGSGGGGSGGGGSGGGGSDGQMTQSPSSVSASVGDRVTITCQASQSIYSYLSWYQQKPGQRPKLLIYKASTLASGVPSRFSGSGSGTDFTLTISSVQPEDFATYYCQQGYTVTNVDKNTFGGGTKVEIKAAEPKSSDKTHTCPPCPAPEAAGGPSVFLFPPKPKDTLMISRTPEVTCVVVSVSHEDPEVKFNWYVDGVEVHNAKTKPREEQYNSTYRVVSVLTVLHQDWLNGKEYKCKVSNKALPAPIEKTISKAKGQPREPQVYVLPPSRDELTKNQVSLLCLVKGFYPSDIAVEWESNGQPENNYLTWPPVLDSDGSFFLYSKLTVDKSRWQQGNVFSCSVMHEALHNHYTQKSLSLSPG
notes: CD3 Fab x Cldn18.2 scFv Fc, wildtype (WT) PD-1 attached to HC1 (C-term)
B2: v38744 (other)
heavy 1: EVQLVESGGGLVQPGGSLRLSCAASGVTFNYYGMSWIRQAPGKGLEWVASITSSGGRIYYPDSVKGRFTISRENTQKTLYLQMNSLRAEDTAVYYCTLDGRDGWVAYWGQGTLVTVSSASTKGPSVFPLAPSSKSTSGGTAALGCLVKDYFPEPVTVSWNSGALTSGVHTFPAVLQSSGLYSLSSVVTVPSSSLGTQTYICNVNHKPSNTKVDKKVEPKSCDKTHTCPPCPAPEAAGGPSVFLFPPKPKDTLMISRTPEVTCVVVSVSHEDPEVKFNWYVDGVEVHNAKTKPREEQYNSTYRVVSVLTVLHQDWLNGKEYKCKVSNKALPAPIEKTISKAKGQPREPQVYVYPPSRDELTKNQVSLTCLVKGFYPSDIAVEWESNGQPENNYKTTPPVLDSDGSFALVSKLTVDKSRWQQGNVFSCSVMHEALHNHYTQKSLSLSPGGGGGSGQVQLVESGGGLVQPGGSLRLSCSVSGIDLSSNPMIWVRQAPGKGLQYIGIIDTDGSTYYADWAKGRFTISKDSTTVYLQINSPRAEDTAVYYCARRLHGSSNGYYDDLWGQGTLVTVSSGGGGSGGGGSGGGGSGGGGSDGQMTQSPSSVSASVGDRVTITCQASQSIYSYLSWYQQKPGQRPKLLIYKASTLASGVPSRFSGSGSGTDFTLTISSVQPEDFATYYCQQGYTVTNVDKNTFGGGTKVEIK
light: NPPTFSPALLVVTEGDNATFTCSFSNTSESFVLNWYRMSPSNQTDKLAAFPEDRSQPGQDARFRVTQLPNGRDFHMSVVRARRNDSGTYLCGAISLAPKAQIKESLRAELRVTEGGGGSGNFMLTQPHSVSESPGKTVTISCKRNTGNIGSNYVNWYQQHEGSSPTTIIYRNDKRPDGVSDRFSGSIDRSSKSASLTISNLKTEDEADYFCQSYSSGFIFGGGTKLTVLGQPKAAPSVTLFPPSSEELQANKATLVCLISDFYPGAVTVAWKADSSPVKAGVETTTPSKQSNNKYAASSYLSLTPEQWKSHRSYSCQVTHEGSTVEKTVAPTECS
heavy 2: B1 heavy 2
notes: CD3 Fab with C-term Cldn18.2 scFv x Cldn18.2 scFv Fc with wildtype (WT) PD-1 attached to CD3 LC (N-term)
B3: v38743 (other)
heavy 1: B2 heavy 1
light: B2 light with A100L
heavy 2: B1 heavy 2

Target: Human CD3 (recombinant) (human)
Assay: SPR, CD3 amine-coupled, variant as analyte, 1:1 model

Chain of Human CD3 (recombinant) (human) (chain, as listed by the source): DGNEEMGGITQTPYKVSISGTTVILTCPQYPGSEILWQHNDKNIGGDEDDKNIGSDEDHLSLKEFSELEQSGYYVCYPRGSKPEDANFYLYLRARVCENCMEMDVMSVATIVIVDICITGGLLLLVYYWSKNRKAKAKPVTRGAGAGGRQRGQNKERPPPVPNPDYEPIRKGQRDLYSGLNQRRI

Going from B1 to B2, the Kd rises from 30 nM to 190 nM (6.3-fold).

In the case of B3, the Kd is reported as 120 nM.

Target: T1, Human PD-L1 (human, UniProt Q9NZQ7 19-239)
T1 construct: Amine-coupled to a CM5 chip for SPR; also called recombinant human PD-L1
Assay: SPR, PD-L1 amine-coupled, variant as analyte, 1:1 model

T1 sequence (Q9NZQ7 19-239 limits assumed): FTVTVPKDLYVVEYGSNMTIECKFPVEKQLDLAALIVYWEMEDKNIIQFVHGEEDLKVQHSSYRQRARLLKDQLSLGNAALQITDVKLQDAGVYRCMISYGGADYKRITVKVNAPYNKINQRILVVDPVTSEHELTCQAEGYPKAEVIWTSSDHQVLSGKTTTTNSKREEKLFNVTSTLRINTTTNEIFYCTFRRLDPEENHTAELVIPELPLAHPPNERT

Compared with B1, B2 is 3.7-fold higher in Kd: 510 nM for the first, 1900 nM for the second.

For B3, the Kd was 220 nM.

— patent publication US20250019440A1 (Zymeworks, published 2025)
